This passage reports fold decrease in binding with ISX9 against DMSO results from publication doi:10.1101/2025.04.25.650293.

The experiment deals with ELMSAN1 (human (endogenous in 143B)) (UniProt Q6PJG2). The experiment can be described thus: affinity purification with mass spectrometry.
UniProt Q6PJG2, sequence (Q6PJG2 whole entry): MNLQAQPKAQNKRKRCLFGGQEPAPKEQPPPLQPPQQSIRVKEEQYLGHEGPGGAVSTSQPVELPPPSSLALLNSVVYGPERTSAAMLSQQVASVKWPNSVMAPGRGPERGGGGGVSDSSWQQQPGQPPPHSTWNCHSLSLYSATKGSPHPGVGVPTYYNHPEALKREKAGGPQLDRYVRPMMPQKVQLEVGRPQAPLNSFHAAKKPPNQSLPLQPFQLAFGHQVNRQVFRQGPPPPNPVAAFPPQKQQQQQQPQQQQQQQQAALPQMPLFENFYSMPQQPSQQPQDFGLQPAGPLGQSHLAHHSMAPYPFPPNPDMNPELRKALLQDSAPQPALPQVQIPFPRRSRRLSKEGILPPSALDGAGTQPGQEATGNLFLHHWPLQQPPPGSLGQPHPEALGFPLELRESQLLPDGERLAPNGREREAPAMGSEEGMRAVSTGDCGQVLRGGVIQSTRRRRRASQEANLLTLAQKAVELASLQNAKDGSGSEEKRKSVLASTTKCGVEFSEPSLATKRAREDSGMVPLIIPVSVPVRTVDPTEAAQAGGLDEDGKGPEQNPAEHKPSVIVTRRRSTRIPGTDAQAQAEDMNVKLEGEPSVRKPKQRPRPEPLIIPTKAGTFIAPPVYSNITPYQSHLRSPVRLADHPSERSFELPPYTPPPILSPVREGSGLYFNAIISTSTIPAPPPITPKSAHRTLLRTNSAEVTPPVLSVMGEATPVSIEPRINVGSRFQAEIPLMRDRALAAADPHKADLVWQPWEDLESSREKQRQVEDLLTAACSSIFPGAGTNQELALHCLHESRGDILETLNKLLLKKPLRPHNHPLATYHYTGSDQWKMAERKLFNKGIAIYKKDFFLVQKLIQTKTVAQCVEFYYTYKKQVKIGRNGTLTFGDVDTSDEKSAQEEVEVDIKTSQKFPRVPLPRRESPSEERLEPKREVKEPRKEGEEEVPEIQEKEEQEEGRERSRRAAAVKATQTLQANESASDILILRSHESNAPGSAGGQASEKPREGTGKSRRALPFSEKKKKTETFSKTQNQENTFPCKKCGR

Take “PDHX (from UniProt O00330 54-501) (natural protein)”: the fold decrease in binding with ISX9 against DMSO was more than 100 fold.
